Biological target: the molecule itself
Test: negative-stain transmission electron microscopy; reaction mixtures of 5 μM Pchlide, 15 μM AtPORB, 200 μM NADPH and either 100 μM lowMGDG lipid mixture (2.5 mol% MGDG, 47.5 mol% PG, 50 mol% DGDG) or OPT lipids; filaments seen

B1: light-dependent protochlorophyllide oxidoreductase B from Arabidopsis thaliana (enzyme)
chain: QTAATSSPTVTKSVDGKKTLRKGNVVVTGASSGLGLATAKALAETGKWNVIMACRDFLKAERAAKSVGMPKDSYTVMHLDLASLDSVRQFVDNFRRTETPLDVLVCNAAVYFPTAKEPTYSAEGFELSVATNHLGHFLLARLLLDDLKKSDYPSKRLIIVGSITGNTNTLAGNVPPKANLGDLRGLAGGLNGLNSSAMIDGGDFDGAKAYKDSKVCNMLTMQEFHRRFHEETGVTFASLYPGCIASTGLFREHIPLFRALFPPFQKYITKGYVSETESGKRLAQVVSDPSLTKSGVYWSWNNASASFENQLSEEASDVEKARKVWEISEKLVGLA
notes: LPOR B of Arabidopsis thaliana, P21218; probably without the transit peptide, as the constructs cloned here; In the assays it stood with Pchlide, NADPH and lipids; also called AtPORB; LPOR
binding result: binds

From publication PMC11930087, “Mobility of four structural regions drives isoform-specific properties of photoenzyme LPOR in plants” (The Journal of Biological Chemistry, 2025)
